Reference: patent US20190233475A1 (Bicycle, published 2019)
Like-named read-outs stand apart in the source and are kept apart here. *1 amine or outer side, *2 acyl side, *3 side chain or, on linkers, in order; H or OH if unused. Bridges are numbered along the chain shown (N, C = ends). Where no end group is shown, it is not given here. [ ]: non-standard residue; d: D form. TBMB = c1c(C[*:1])cc(C[*:3])cc1C[*:2]; hArg = N=C(N)NCCCC[C@H](N)C(=O)O; Aze = O=C(O)[C@@H]1CCN1; Sar = CNCC(=O)O

B1: 06-254 (peptide)
peptide: ACKNYWNPCDLVTISCA-NH2
modifications: linker 2-9-16 via TBMB; N-terminus assumed
SMILES: CC[C@H](C)[C@@H]1NC(=O)[C@H]([C@@H](C)O)NC(=O)[C@H](C(C)C)NC(=O)[C@H](CC(C)C)NC(=O)[C@H](CC(=O)O)NC(=O)[C@@H]2CSCc3cc(cc(c3)CSC[C@@H](C(=O)N[C@@H](C)C(N)=O)NC(=O)[C@H](CO)NC1=O)CSC[C@H](NC(=O)[C@H](C)N)C(=O)N[C@@H](CCCCN)C(=O)N[C@@H](CC(N)=O)C(=O)N[C@@H](Cc1ccc(O)cc1)C(=O)N[C@@H](Cc1c[nH]c3ccccc13)C(=O)N[C@@H](CC(N)=O)C(=O)N1CCC[C@H]1C(=O)N2
notes: Synthetic bicyclic peptide, 6 x 6, made on Rink amide resin
B2: 06-259-02 (peptide)
peptide: ACNTWNPWCPWDAPLCA-NH2
modifications: linker 2-9-16 via TBMB
notes: as for B1
B3: 06-259-04 (peptide)
peptide: ACNYWNPWCPWDAPLCA-NH2
modifications: linker 2-9-16 via TBMB
notes: as for B1
B4: Ac-(06-259-02)-Sar3-(DArg2) (peptide)
peptide: Ac-CNTWNPWCPWDAPLCA[Sar][Sar][Sar][dR][dR]-NH2
modifications: linker 1-8-15 via TBMB
SMILES: CC(=O)N[C@H]1CSCc2cc3cc(c2)CSC[C@H](NC(=O)[C@H](Cc2c[nH]c4ccccc24)NC(=O)[C@@H]2CCCN2C(=O)[C@H](CC(N)=O)NC(=O)[C@H](Cc2c[nH]c4ccccc24)NC(=O)[C@H]([C@@H](C)O)NC(=O)[C@H](CC(N)=O)NC1=O)C(=O)N1CCC[C@H]1C(=O)N[C@@H](Cc1c[nH]c2ccccc12)C(=O)N[C@@H](CC(=O)O)C(=O)N[C@@H](C)C(=O)N1CCC[C@H]1C(=O)N[C@@H](CC(C)C)C(=O)N[C@H](C(=O)N[C@@H](C)C(=O)N(C)CC(=O)N(C)CC(=O)N(C)CC(=O)N[C@H](CCCNC(=N)N)C(=O)N[C@H](CCCNC(=N)N)C(N)=O)CSC3
notes: Synthetic bicyclic peptide with solubilising extension, made on Rink amide resin; also called Bicycle 3
B5: Ac-(06-255) (peptide)
peptide: Ac-CRNYWNPCTLINITC-NH2
modifications: linker 1-8-15 via TBMB
notes: Synthetic bicyclic peptide without the terminal alanines, made on Rink amide resin
B6: 06-259 (peptide)
peptide: ACNTWNPWCGWVGGFCA-NH2
modifications: linker 2-9-16 via TBMB
notes: as for B1
B7: Ac-(06-550)-Sar3-(DArg2) Aze3HArg5 (peptide)
peptide: Ac-CSF[Aze]Y[hArg]CVYYPDICA[Sar][Sar][Sar][dR][dR]-NH2
modifications: linker 1-7-14 via TBMB
notes: Synthetic bicyclic peptide, 5 x 6, made on Rink amide resin; also called Bicycle 1
B8: 06-254-03 (peptide)
peptide: ACKNYWNPCDLVMDTCA-NH2
modifications: linker 2-9-16 via TBMB; N-terminus assumed
SMILES: CSCC[C@@H]1NC(=O)[C@H](C(C)C)NC(=O)[C@H](CC(C)C)NC(=O)[C@H](CC(=O)O)NC(=O)[C@@H]2CSCc3cc(cc(c3)CSC[C@@H](C(=O)N[C@@H](C)C(N)=O)NC(=O)[C@H]([C@@H](C)O)NC(=O)[C@H](CC(=O)O)NC1=O)CSC[C@H](NC(=O)[C@H](C)N)C(=O)N[C@@H](CCCCN)C(=O)N[C@@H](CC(N)=O)C(=O)N[C@@H](Cc1ccc(O)cc1)C(=O)N[C@@H](Cc1c[nH]c3ccccc13)C(=O)N[C@@H](CC(N)=O)C(=O)N1CCC[C@H]1C(=O)N2
notes: as for B1
B9: 06-256 (peptide)
peptide: ACQKFESRCRVDTRYCA-NH2
modifications: linker 2-9-16 via TBMB
notes: as for B1
B10: 06-259-01 (peptide)
peptide: ACNHWNPWCSVEPPVCA-NH2
modifications: linker 2-9-16 via TBMB
notes: as for B1
B11: 06-254-02 (peptide)
peptide: ACKNYWNPCDLIPGPCA-NH2
modifications: linker 2-9-16 via TBMB; N-terminus assumed
SMILES: CC[C@H](C)[C@@H]1NC(=O)[C@H](CC(C)C)NC(=O)[C@H](CC(=O)O)NC(=O)[C@@H]2CSCc3cc(cc(c3)CSC[C@@H](C(=O)N[C@@H](C)C(N)=O)NC(=O)[C@@H]3CCCN3C(=O)CNC(=O)[C@@H]3CCCN3C1=O)CSC[C@H](NC(=O)[C@H](C)N)C(=O)N[C@@H](CCCCN)C(=O)N[C@@H](CC(N)=O)C(=O)N[C@@H](Cc1ccc(O)cc1)C(=O)N[C@@H](Cc1c[nH]c3ccccc13)C(=O)N[C@@H](CC(N)=O)C(=O)N1CCC[C@H]1C(=O)N2
notes: as for B1
B12: Ac-(06-255)-Sar3-(DArg2) (peptide)
peptide: Ac-CRNYWNPCTLINITCA[Sar][Sar][Sar][dR][dR]-NH2
modifications: linker 1-8-15 via TBMB
SMILES: CC[C@H](C)[C@@H]1NC(=O)[C@H](CC(C)C)NC(=O)[C@H]([C@@H](C)O)NC(=O)[C@@H]2CSCc3cc(cc(c3)CSC[C@@H](C(=O)N[C@@H](C)C(=O)N(C)CC(=O)N(C)CC(=O)N(C)CC(=O)N[C@H](CCCNC(=N)N)C(=O)N[C@H](CCCNC(=N)N)C(N)=O)NC(=O)[C@H]([C@@H](C)O)NC(=O)[C@H]([C@@H](C)CC)NC(=O)[C@H](CC(N)=O)NC1=O)CSC[C@H](NC(C)=O)C(=O)N[C@@H](CCCNC(=N)N)C(=O)N[C@@H](CC(N)=O)C(=O)N[C@@H](Cc1ccc(O)cc1)C(=O)N[C@@H](Cc1c[nH]c3ccccc13)C(=O)N[C@@H](CC(N)=O)C(=O)N1CCC[C@H]1C(=O)N2
notes: Synthetic bicyclic peptide with solubilising extension, made on Rink amide resin
B13: 06-259-03 (peptide)
peptide: ACNHWNPWCSADPPICA-NH2
modifications: linker 2-9-16 via TBMB
notes: as for B1
B14: 06-261 (peptide)
peptide: ACNNFPFRCVYYPDICA-NH2
modifications: linker 2-9-16 via TBMB
notes: as for B1
B15: Ac-(06-550)-Sar3-(DArg2) (peptide)
peptide: Ac-CSFPYRCVYYPDICA[Sar][Sar][Sar][dR][dR]-NH2
modifications: linker 1-7-14 via TBMB
notes: Synthetic bicyclic peptide, 5 x 6, made on Rink amide resin
B16: 06-258 (peptide)
peptide: ACPYPFRCLHENLCA-NH2
modifications: linker 2-8-14 via TBMB
notes: Synthetic bicyclic peptide, 5 x 5, made on Rink amide resin
B17: 06-257 (peptide)
peptide: ACPLSDTLCYRRMPPCA-NH2
modifications: linker 2-9-16 via TBMB
notes: as for B1

Experiments:
Experiment in all cases: enzyme inhibition assay, fluorogenic substrate Z-PheArg-AMC
rabbit plasma kallikrein [1] = biological target: T1, rabbit plasma kallikrein (rabbit, UniProt G1T127 20-390; G1T127 391-629, The active enzyme is two chains, heavy and catalytic light, joined by a disulfide after cleavage at Arg390-Ile391. The letters do not carry the natural glycosylation.)
T1 construct: also called rabbit kallikrein
Experimental: (§1) Functional enzyme assays were conducted in 10 mM Tris HCl, 150 mM NaCl, 10 mM MgCl₂, 1 mM CaCl₂ and 1 mg/mL BSA (all Sigma UK) pH 7.4 at 25° C. in solid black 96 or 384 well plates. […] Release of AMC was measured using a Pherastar FS (BMG Labtech), excitation 360 nm, emission 460 nm. The rate of the linear phase of the reaction, typically 5 to 45 minutes, was calculated in MARS data analysis software (BMG labtech). The rate was then used to calculate the IC₅₀ and Kᵢ in Prism (GraphPad). A four parameter inhibition non-linear regression equation was used to calculate the IC₅₀. The One site-fit Kᵢ equation used to calculate the Kᵢ, constraining the Kᵢ to the Kₘ for the substrate which is 150 μM for the human enzyme, and 200 μM for the rat orthologue. All Kᵢ/IC₅₀ values are the mean of at least two independent experiments, and at least three for peptides with Kᵢ values lower than 1 nM. For rabbit kallikrein, between 7 to 14 pM enzyme was employed, with 33 μM substrate with a Kₘ of 50 μM.

rat plasma kallikrein [2] = biological target: T2, rat plasma kallikrein (rat, UniProt P14272 391-638)
T2 construct: domain: catalytic domain; Expressed and purified in house; also called rat kallikrein; rPK
Experimental: as §1

human plasma kallikrein [3] = biological target: T3, human plasma kallikrein (human, UniProt P03952 20-638)
T3 construct: Enzyme used in the Ki assays; also called human kallikrein; PK
Experimental: as §1

rabbit plasma kallikrein [4] = biological target: T1, rabbit plasma kallikrein; remark: listed apart in the source
Experimental: as §1

rat plasma kallikrein [5] = biological target: T2, rat plasma kallikrein; remark: listed apart in the source
Experimental: as §1

human plasma kallikrein [6] = biological target: T3, human plasma kallikrein; remark: listed apart in the source
Experimental: as §1

T1 sequence (heavy, as listed by the source limits assumed, form in doubt, chain 1 of 2): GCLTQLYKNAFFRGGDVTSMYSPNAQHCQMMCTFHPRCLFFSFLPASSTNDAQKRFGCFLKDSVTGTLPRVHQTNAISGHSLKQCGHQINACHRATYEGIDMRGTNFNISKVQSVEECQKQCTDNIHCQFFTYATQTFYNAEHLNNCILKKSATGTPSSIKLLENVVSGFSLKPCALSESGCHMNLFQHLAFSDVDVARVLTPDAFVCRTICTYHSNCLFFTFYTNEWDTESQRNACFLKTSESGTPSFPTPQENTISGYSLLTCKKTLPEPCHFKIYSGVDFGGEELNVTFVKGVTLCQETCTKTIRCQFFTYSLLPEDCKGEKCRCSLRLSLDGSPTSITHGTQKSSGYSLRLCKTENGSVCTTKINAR
T1 sequence (light, as listed by the source limits assumed, form in doubt, chain 2 of 2): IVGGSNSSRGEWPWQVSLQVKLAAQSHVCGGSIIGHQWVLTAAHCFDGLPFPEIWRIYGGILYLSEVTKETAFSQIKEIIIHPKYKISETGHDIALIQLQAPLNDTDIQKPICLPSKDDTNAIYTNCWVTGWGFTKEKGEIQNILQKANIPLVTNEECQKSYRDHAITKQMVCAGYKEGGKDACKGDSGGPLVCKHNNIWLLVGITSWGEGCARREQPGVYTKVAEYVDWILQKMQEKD
T3 sequence (P03952 20-638 limits assumed): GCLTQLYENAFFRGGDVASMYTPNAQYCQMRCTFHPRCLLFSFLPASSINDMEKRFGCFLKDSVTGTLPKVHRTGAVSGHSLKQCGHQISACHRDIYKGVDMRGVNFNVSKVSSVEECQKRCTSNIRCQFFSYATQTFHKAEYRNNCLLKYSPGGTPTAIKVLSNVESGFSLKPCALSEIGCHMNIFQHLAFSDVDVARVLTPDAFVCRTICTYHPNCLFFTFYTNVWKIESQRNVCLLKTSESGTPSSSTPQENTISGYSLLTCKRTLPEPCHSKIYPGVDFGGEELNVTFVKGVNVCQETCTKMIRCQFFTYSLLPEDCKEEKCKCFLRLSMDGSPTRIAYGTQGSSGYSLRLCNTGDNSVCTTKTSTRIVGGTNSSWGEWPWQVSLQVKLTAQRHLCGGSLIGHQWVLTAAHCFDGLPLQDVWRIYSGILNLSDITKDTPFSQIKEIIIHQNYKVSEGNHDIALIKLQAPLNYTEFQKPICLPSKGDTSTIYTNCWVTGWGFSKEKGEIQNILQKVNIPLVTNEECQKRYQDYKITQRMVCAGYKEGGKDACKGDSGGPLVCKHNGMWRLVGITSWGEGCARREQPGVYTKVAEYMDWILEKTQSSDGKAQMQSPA
T2 sequence (P14272 391-638 limits assumed): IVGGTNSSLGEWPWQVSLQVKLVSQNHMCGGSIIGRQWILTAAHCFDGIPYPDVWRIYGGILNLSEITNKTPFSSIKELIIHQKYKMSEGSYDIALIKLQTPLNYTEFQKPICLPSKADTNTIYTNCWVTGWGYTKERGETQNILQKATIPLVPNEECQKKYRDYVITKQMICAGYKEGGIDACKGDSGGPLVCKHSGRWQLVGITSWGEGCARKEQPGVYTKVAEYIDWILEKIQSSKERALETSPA

| Binder | Ki (rabbit plasma kallikrein [1]) [nM] | Ki (rat plasma kallikrein [2]) [nM] | Ki (human plasma kallikrein [3]) [nM] | Ki (rabbit plasma kallikrein [4]) [nM] | Ki (rat plasma kallikrein [5]) [nM] | Ki (human plasma kallikrein [6]) [nM] |
| --- | --- | --- | --- | --- | --- | --- |
| B1 | 280 | 42.5 | 5.3 | 280 | 42.5 | 5.3 |
| B2 | 1450 | 0.2 | 2.3 | – | – | – |
| B3 | – | 6.7 | 3.4 | – | – | – |
| B4 | – | – | – | 1450 | 2.1 | 0.8 |
| B5 | – | – | – | 342 | 7.7 | 3.7 |
| B6 | – | 6.2 | 20.1 | – | 6.2 | 20.1 |
| B7 | – | – | – | 2650 | 8.2 | 0.4 |
| B8 | – | 10.1 | 1.4 | – | – | – |
| B9 | 1460 | 2780 | 6.6 | 1460 | 2780 | 6.6 |
| B10 | – | 10.4 | 2.4 | – | – | – |
| B11 | – | 7.6 | 0.5 | – | – | – |
| B12 | – | – | – | 251 | 7.4 | 1.2 |
| B13 | – | 8.2 | 1.4 | – | – | – |
| B14 | 1040 | 4 | 0.4 | 1040 | 4 | 0.4 |
| B15 | – | – | – | 207 | 24 | 2.1 |
| B16 | 331 | 5.2 | 4.3 | 331 | 5.2 | 4.3 |
| B17 | – | 159 | 36.1 | – | 159 | 36.1 |
| Ac-CSFPYRCVYYPDIC-NH2 (linker 1-7-14 via TBMB) [Ac-(06-550)] | – | – | – | 610 | 9.3 | 0.9 |
